Target: Met receptor on MK keratinocytes (mouse) (UniProt P16056)
Experiment: cell-based or functional assay

Question: “InIB full length (from UniProt P0DQD2 31-630) (ligand)” was tested. Which stimulation of DNA synthesis in MK keratinocytes, lowest active concentration did it give?
Answer: The stimulation of DNA synthesis in MK keratinocytes, lowest active concentration was 100 pM.

— patent EP2138508A1
